Laboratory results published in PMC4704858 (Science (New York, N.Y.), 2015).

Molecular target: the molecule itself
Assay: crystal structure

B1: MvINS, an Insig homolog from Mycobacterium vanbaalenii PYR-1 (wild type) (natural protein)
chain: MRLRISEAVVLFLLGAVAALIGDHSHVVTGTTVYHTDAVPFVWSSPFWFPILVGAATASLAELRLHLPAPRDGVTARQALGGVAAVVGTYVTTALVHAFPVVPVTALVCAAAAITWCVLGDGPGAACGVVIAVIGPAVEIALVQLGVFAYHPDSDGLFGVAPFLAPLYFAFGVVAALLGELAVARRPQLGPPVCDTVSRGPGAG
stoichiometry N: 3
